Values joined by “and” are separate entries in the source; they are usually repeats but may differ in a detail not shown here. Equal entries are not always repeated. Peptide text beside a SMILES is read from it.
Assays:
[1] = Partitioning of anionic compounds with arginine esters; assay type: physicochemical; conditions: for log p: pH 5.5 buffer, 1 mg/mL
Description: Stock solutions of the arginine esters were made by first dissolving the powder in 0.1 N HCl to give a 10 mM solution and then raising the pH to a value between 5 and 6. The pH should not be raised above 8.
Anionic compounds were dissolved in pH 5.5 buffer (10 mM bis-tris propane, 10 mM CaCl2, 10 mM KCl). Appropriate amounts of the stock solution of arginine ester (see above), the anionic compound and buffer were mixed so that the final concentration of the anionic material was 1 mg/mL. An equal volume of organic solvent was added, and the samples were vortexed for 15 seconds on high speed. Layers were separated by centrifugation at 4000 rpm for 5 minutes. Concentrations of the anionic material in the aqueous and organic layers were determined by UV spectroscopy on a Beckman DU-64 series spectrophotometer.

[2] = Thermal denaturation (Tm) following molar ellipticity at 222 nm; assay type: physicochemical
Text: [define Tm. […] (FIG. 6), which is more than 30 degrees above that observed in water.

[3] = Melting point of SDS:insulin ion pairs in 1-octanol (CD signal and absorbance at 222 nm); assay type: physicochemical
Description: Equal volumes of octanol were added to each SDS:insulin solution to partition the insulin into the octanol phase. […] Both circular dichroism (CD) signal and light scattering (as measured by changes in absorbance) were measured at 222 nm and the melting point determined by an inflection point in the measured scan.

[4] = Partitioning and dissolution of SDS-insulin complexes in non-aqueous solvents; assay type: physicochemical; conditions: for Apparent Sol. / Log P: SDS-insulin complex
Text: Dissolution of insulin-SDS complexes in other solvents was investigated as well (Table 1). Precipitates of SDS-insulin complexes were isolated and added to various organic solvents. […] Besides alcohols. SDS-insulin complexes are soluble in N-methylpyrrolidone (NMP), trimethylphosphate (TRIP), polyethylene glycol, ethanol, and t-butanol.

[5] = Apparent partition coefficient water/1-octanol upon SDS addition
Description: The relative solubilities in two phases is given in terms of an apparent partition coefficient. The apparent partition coefficient is defined as the ratio of the equilibrium concentration in an organic phase to that in an aqueous phase. The actual value of the apparent partition coefficient, P, is dependent on the two solvent systems employed. In all cases herein described, the organic phase is 1-octanol and the aqueous phase is water alone or with a minimal amount of HCl added.
Apparent partition coefficients were measured by dissolving a peptide in 1.25 ml of an aqueous solution. Before SDS addition, the pH was measured on a Beckman pH meter. […] An equal volume of 1-octanol was added and the mixtures agitated, and then left undisturbed for several hours. Prior to analysis, the tubes were spun for 10 minutes at 4000 g. Each layer was removed and the absorbance measured on a Beckman DU-64 UV-visible spectrophotometer using I cm quartz cells. All apparent partition coefficients were corrected for changes in pH with differing SDS concentrations.
Results are described as logarithms of the apparent partition coefficient. A log P value of 0 means that the compound is equally soluble in water and the organic phase. […] All of the log P values reported herein have been corrected for slight changes in solubility with pH.

[6] = Surface tension, critical micelle concentration; assay type: physicochemical; conditions: in 0.1 N HCl
Description: Surface tension was measured using a Fisher surface tensiometer. Briefly, a platinum iridium ring with a diameter of 6 cm was lowered into the appropriate dilution of detergent in 0.1 N HCl. Surface tension was read at the point where the force on the ring upwards caused the ring to break contact with the liquid surface.

CCRF-CEM cells = assay: Cytotoxicity, MTS cell proliferation assay; assay type: cell-based, human; conditions: for IC50: Homo sapiens, 2-6 hours exposure, 72 hours incubation, read-out: IC50 (half-maximal growth inhibition)
Description: (§1) The cytotoxicity of arginine dodecyl ester was investigated in cell culture with two types of cells (see Cory et al, Cancer Commun., 3, 207-212 (1991)): CCRF-CEM cells, a human T-cell leukemia cell line that grows in suspension (obtained from the American Type Culture Collection, ATCC); and a green monkey kidney cell line (COS-7) that grows in monolayers (also obtained from ATCC). For comparison, the cells were also exposed to […] bromide (DTAB) (Sigma).
(§2) Cells were plated into 96-well plates (Corning) in a total of 200 μL Dulbecco's modified minimal essential medium for COS-7 cells, RPMI 1640 for CEM cells, supplemented with penicillin G (50 U/ml), streptomycin sulfate (50 μg/ml), and 10% fetal calf serum, at 10,000 cells/well for COS-7 and 50,000 cells/well for CEM cells. The plates were incubated at 37° C. for 24 hours after plating. The cells were then exposed to various concentrations of the detergents. Each detergent concentration was used in 8 replicate wells. After 2-6 hours, media/detergent solutions were aspirated, and the wells were washed twice with PBS. For CEM suspension cells, centrifugation of the suspension at 1000× g for 5 min between each wash was required. After washing, 200 μL of fresh medium were added, and the cells were incubated for 72 hours. After 72 hours, cell proliferation was determined using the Promega CellTiter 96 AQueous Non-Radioactive Cell Proliferation Assay.

COS-7 cells [7] = assay: Transfection of plasmid pRSV400luc, luciferase activity; assay type: cell-based, green monkey; conditions: without liposomes or helper lipids; serum-containing medium
Text: The plasmid used was pRSV400luc. It was obtained from Dr. David Gordon Div. Endocrinology, University of Colorado School of Medicine, Denver, Colo. It was propagated in Escherichia coil strain DH5a (ATCC), isolated by a standard alkaline-SDS Iysis procedure, and purified twice by isopycnic centrifugation on CsCl gradients (Sambrook et al, Molecular Cloning: A Laboratory Manual (Cold Spring Harbor Laboratory) (1989). COS-7 cells at approximately 50,000 cells per 60 mm diameter plate (Falcon) were used for transfection. Control experiments were done with Lipofectamine (GIBCO/Life Technologies, Gaithersburg, Md.).
In 200 total μl of serum-free medium, plasmid (20 μg) and Lipofectamine or arginine dodecyl ester were mixed and allowed to interact for 45 minutes. […] Plates with cells were washed with serum-free medium. Then, 1 mL serum-free medium was added to plates already containing 2 mL serum-free medium and the plates were incubated at 37° C. for 4 hours. […]
After allowing cells to grow and express gene product for 36-50 hours, the cells were harvested. […] Intensity of luminescence should be proportional to the amount of expressed luciferase and, therefore, the efficiency of transfection. “Background” is the reading from just the substrate mixture on the luminometer before addition of cell lysate. […] Any reading over 100 units is considered significant.

COS-7 cells [8] = assay: Cytotoxicity, MTS cell proliferation assay; assay type: cell-based, green monkey
Description: as §1
as §2, with “After washing, 200 μL of fresh medium were added, and the cells were incubated for 72 hours.” left out, “Assay. […]” for “Assay.”

[9] = assay type: physicochemical
Text: Larger proteins can also form complexes with SDS. […] At higher SDS concentrations, hGH redissolves, presumably via micellar solubilization. […] Other proteins can also form complexes with SDS. Bovine pancreatic trypsin inhibitor (BPTI) is a small basic protein (MW 5900) with a well defined and stable structure (Wlodawer et. al. (1984) J. Mol. Biol. 180:301-329, and (1987) J. Mol. Biol. 193:145-156). […] In TMP, the globular structure is compromised, as determined by CD spectroscopy. Apparently, TMP is a strong enough solvent to displace water from the hydration sphere and destabilize the structure of BPTI. This mechanism of protein denaturation has been described in detail by Arakawa and […] (1982) Biochemistry 21:6536-6544. and (1982) Biochemistry 21:6545-6552.

[10] = Solubility of arginine octyl ester powder; assay type: physicochemical
[11] = CD spectrometry of protein structure in organic solvent; assay type: physicochemical; conditions: extracted from 1-octanol into 0.10 M HCl; 53 ug/ml, 5° C.
Description: CD spectra were recorded on an Aviv 62DS spectrophotometer equipped with a thermoelectric temperature unit. All temperatures were measured ±0.2° C. Samples were placed in strain-free quartz cells (pathlength of 1 mm) and spectra obtained taking data every 0.25 nm using a three second averaging time, and having a spectral bandwidth of 1 nm.
The pathlength was 1 mm, the sample concentration 53 ug/ml, and the sample temperature 5° C.

[12] = organic solvent Propylene Glycol
[13] = organic solvent Trifluoroethanol
[14] = organic solvent Trimethyl phosphate

## bovine serum albumin: protein tested for partitioning with arginine dodecyl ester
[1]; arginine dodecyl ester added, solutions turned cloudy
  partitioning into octanol layer: none would partition into octanol layer

## insulin-SDS complex: hydrophobic ion pair complex of insulin with sodium dodecyl sulfate
[2]; in 1-octanol, 70° C. for more than 1 hour
  structure after prolonged heating: appears to maintain its native structure
[3]; 6:1 SDS:insulin molar ratio, 200 ug/ml
  melting point in octanol (apparent maximum): about 116 °C
[3]; 9:1 SDS:insulin molar ratio
  melting point in octanol, absorbance scan at 222 nm: 106 °C
[3]; 9:1 SDS:insulin molar ratio, maxima of first derivative
  melting point in octanol, CD scan at 222 nm: 106 °C
[4]
  solubility in organic solvents: soluble

## Cc1ccc(S(=O)(=O)[O-])cc1.[Na+] [p-toluenesulfonic acid, sodium salt]
[1]; Ester C8 (arginine octyl ester), solvent isooctane
  log p: −2.2
[1]; Ester C8 (arginine octyl ester), solvent octanol
  log p: −0.353
[1]; Ester C12 (arginine dodecyl ester), solvent octanol
  log p: −0.336
[1]; Ester none, solvent isooctane
  log p: −2.7
[1]; Ester none, solvent octanol
  log p: −1.62

## NC(=O)CC[C@@H]1NC(=O)[C@H](Cc2ccccc2)NC(=O)[C@H](Cc2ccc(O)cc2)NC(=O)[C@@H](N)CSSC[C@@H](C(=O)N2CCC[C@H]2C(=O)N[C@@H](CCCN=C(N)N)C(=O)NCC(N)=O)NC(=O)[C@H](CC(N)=O)NC1=O [AVP, 8-Arg-vasopressin]
[5]; pH 7
  log p: > 1
[5]; upon stoichiometric SDS addition, water/1-octanol
  increase of apparent partition coefficient: nearly four orders of magnitude

## Gly-Phe-NH2
[5]; pH 7, 1:1 complex with SDS
  partitioning of SDS complex into 1-octanol: readily partitions into 1-octanol

## CCCCCCCCCCCCOC(=O)[C@@H](N)CCCNC(=N)N [arginine dodecyl ester]
[6]
  critical micelle concentration (cmc): approximately 0.3 mM and ~0.10 mg/ml
CCRF-CEM cells
  toxicity relative to DTAB: seven-fold less toxicity
  IC50: 150 µM
COS-7 cells [7]
  transfection of the plasmid: promoted transfection of the plasmid in a concentration and time dependent manner
COS-7 cells [8]
  toxicity relative to DTAB: approximately two-fold less toxicity

## NCC(=O)N[C@@H](Cc1ccccc1)C(=O)O [Gly-Phe] (H-Gly-Phe-OH)
[5]; neutral pH (zwitterionic form)
  enhancement of partition coefficient with SDS: little enhancement of the partition coefficient is observed
[5]; pH 3
  partitioning with SDS: mirrors the marked increase seen for Gly-PheNH2

## hGH: human growth hormone
[9]
  solubility of SDS precipitate in 1-octanol: not found to be soluble
[9]; pH 2
  aqueous behaviour on addition of SDS: precipitates from aqueous solution
[9]; pH 7.8
  aqueous solubility on addition of SDS: not affected

## CCCCCCCCOC(=O)[C@@H](N)CCCNC(=N)N [arginine octyl ester]
[6]
  critical micelle concentration (cmc): about 6 mM and ~2.2 mg/ml
[10]
  dissolution in HCl: would only dissolve in 0.1 N or stronger HCl
  solubility in water: insoluble
[10]; alcohols, hydrocarbons, aromatics, DMF and pyridine
  solubility in organics: insoluble

## CCCCCCCCCCCCCC[N+](C)(C)C [DTAB, tetradecyltrimethylammonium bromide, reference compound]
CCRF-CEM cells
  IC50: 20 µM
COS-7 cells [8]; Chlorocebus sabaeus, 2-6 hours exposure, 72 hours incubation, read-out: IC50 (half-maximal growth inhibition)
  IC50: 80 µM

## insulin
[2]
  Tm in 1-octanol above that observed in water: more than 30 degrees
[2]; in 1-octanol (SDS complex), molar ellipticity at 222 nm
  Tm of thermal denaturation: 98 °C
[2]; in aqueous solution
  Tm of thermal denaturation: about 65 °C
[11]
  structure by CD after extraction back into aqueous phase: overall structure similar to that of native insulin
[4]; organic solvent 1-Chlorooctane
  Apparent Sol.: insoluble
  Log P: not detectable
[4]; organic solvent 1-octanol
  Apparent Sol.: ≧1.0 mg/ml
  Log P: ≧1.2
[4]; organic solvent Acetone
  Log P: miscible
[4]; organic solvent CCl4
  Apparent Sol.: insoluble
  Log P: not detectable
[4]; organic solvent CH2Cl2
  Apparent Sol.: insoluble
  Log P: not detectable
[4]; organic solvent DMF
  Apparent Sol.: ≧1.0 mg/ml
[4]; organic solvent Dimethoxyethane
  Log P: not detectable
[4]; organic solvent Ethanol
  Apparent Sol.: ≧1.0 mg/ml
  Log P: miscible
[4]; organic solvent Ether
  Apparent Sol.: insoluble
  Log P: not detectable
[4]; organic solvent Ethyl acetate
  Apparent Sol.: insoluble
  Log P: miscible
[4]; organic solvent Hexane
  Apparent Sol.: insoluble
  Log P: not detectable
[4]; organic solvent Methanol
  Apparent Sol.: ≧1.0 mg/ml
  Log P: miscible
[4]; organic solvent Mineral Oil
  Apparent Sol.: insoluble
  Log P: not detectable
[4]; organic solvent NMP
  Apparent Sol.: ≧1.0 mg/ml
  Log P: miscible
[4]; organic solvent PEG 400
  Apparent Sol.: ≧0.2 mg/ml
  Log P: miscible
[4]; [12]
  Apparent Sol.: ≧0.5 mg/ml
  Log P: miscible
[4]; organic solvent THF
  Log P: miscible
[4]; organic solvent TMP
  Apparent Sol.: ≧0.2 mg/ml
  Log P: miscible
[4]; [13]
  Apparent Sol.: ≧0.5 mg/ml
  Log P: miscible
[4]; [14]
  Apparent Sol.: ≧0.15 mg/ml
  Log P: miscible
[4]; organic solvent i-Propanol
  Apparent Sol.: ≧1.0 mg/ml
  Log P: miscible

From US6613358B2, “Sustained-release composition including amorphous polymer” (priority 1998, dated 2003)
